Biological target: T1, human CD56 (human, UniProt P13591 20-718, limits assumed)
T1 construct: also called neural cell adhesion molecule
Experiment: Biacore (surface plasmon resonance), Fab
Description: CD56 Fab selection: CD56-binding Fabs were selected with phage display technology in two steps, as previously described (Feng, et al. A novel human monoclonal antibody that binds with high affinity to mesothelin-expressing cells and kills them by antibody-dependent cell-mediated cytotoxicity. Mol Cancer Ther. 8(5):1113-1118 (2009)). Firstly, CD56 Fabs were identified by panning and screening of a large naïve human antibody library through multiple rounds of binding and amplification. In the second step, the selected clone with the best in vitro and in vivo binding property was affinity matured through a light chain shuffling process, where the VH of the clone was combined with the VL repertoire from the original library. The sub-library was further panned and screened with CD56 to obtain Fab clones with the same epitope but different affinities. Binding of the Fabs was confirmed with ELISA and affinities estimated with Surface Plasmon Resonance method on a Biacore Processing unit X100.

Binder	Kd
m906 anti-CD56 Fab (Fab, V domains shown, Human Fab from light chain shuffling of a phage display clone; also called Fab46-19) VH: EVQLVQSGAEVKKPGSSVKVSCKASGGTFTGYYMHWVRQAPGQGLEWMGWINPNSGGTNYAQKFQGRVTMTRDTSISTAYMELSRLRSDDTAVYYCARDLSSGYSGYFDYWGQGTLVTVSS VL: DVVMTQSPLSLPVTPGEPASISCRSSQSLLHSNGYNFLDWYLQKPGQSPQLLIYLGSNRASGVPDRFSGSGSGTDFTLKISRVEADDVGVYYCMQSLQTPWTFGHGTKVEIKR	4.49 nM
m904 anti-CD56 Fab (Fab, V domains shown, Human Fab from light chain shuffling of a phage display clone; also called Fab46-H3) VH: EVQLVQSGAEVKKPGSSVKVSCKASGGTFTGYYMHWVRQAPGQGLEWMGWINPNSGGTNYAQKFQGRVTMTRDTSISTAYMELSRLRSDDTAVYYCARDLSSGYSGYFDYWGQGTLVTVSS VL: not shown	90.9 nM
m903 anti-CD56 Fab (Fab, V domains shown, Human Fab from light chain shuffling of a phage display clone; also called Fab46-E5) VH: EVQLVQSGAEVKKPGSSVKVSCKASGGTFTGYYMHWVRQAPGQGLEWMGWINPNSGGTNYAQKFQGRVTMTRDTSISTAYMELSRLRSDDTAVYYCARDLSSGYSGYFDYWGQGTLVTVSS VL: not shown	236 nM
m905 anti-CD56 Fab (Fab, V domains shown, Human Fab from light chain shuffling of a phage display clone; also called Fab46-8) VH: EVQLVQSGAEVKKPGSSVKVSCKASGGTFTGYYMHWVRQAPGQGLEWMGWINPNSGGTNYAQKFQGRVTMTRDTSISTAYMELSRLRSDDTAVYYCARDLSSGYSGYFDYWGQGTLVTVSS VL: DVVMTQSPLSLPVTPGEPASISCRSSQSLLHSNGYNYLNWYLQKPGQSPQLLIYLGSNRASGVPDRFSGSGSGTDFTLKISRVEGEDVGDYYCMQALQSPFTFGQGTKLEIKR	9.17 nM

— patent US20180230214A1 (Memorial Sloan Kettering, published 2018)
